From US20250304673A1 (CATALYM, published 2025)

How the values were obtained:
[1] = target: T1, recombinant human GDF-15 (human, Disulfide-linked homodimer: two copies of this chain form the 24.6 kDa molecule of Table 1.); experiment: cell-based or functional assay
T1 chain: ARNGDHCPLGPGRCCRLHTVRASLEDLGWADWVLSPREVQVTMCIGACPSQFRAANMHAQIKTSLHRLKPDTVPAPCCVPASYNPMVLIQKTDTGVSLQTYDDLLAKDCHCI

[2] = target: cynomolgus GDF-15 (cynomolgus monkey); experiment: SPR, Biacore T3000, antibody captured by anti-human IgG Fc, GDF-15 injected
[3] = target: T1, recombinant human GDF-15; experiment: as above
Method: (§1) Affinity of CTL-002 to recombinant human GDF-15 was determined by measuring surface plasmon resonance on a Biacore T3000. In addition, the affinity to cynomolgus rat and mouse GDF-15 was measured (see Table 2).
(§2) All experiments were performed in 10 mM HEPES buffer, pH 7.4, 150 mM NaCl, 3.4 mM EDTA and 0.05% Tween. anti-human IgG Fc specific antibody (Jackson, Order #109-005-008, Lot #111148) was covalently immobilized by EDC/NHS chemistry on Biacore CM5 Chips (GE Healthcare, Order #61144275, Lot #10236645). For kinetic characterization of the antigen-antibody interaction pulses of increasing GDF-15 concentrations (e.g. 156.3 pM, 312 pM, 625 pM, 1,250 pM) were injected at a flow rate of 30 μl/min. After each measurement cycle (8 min of association followed by 30 min of dissociation) the antibody-antigen complex was resolved by regeneration of the surface with 10 mM glycine-HCl at pH 2.0. For calculation of the dissociation constant of CTL-002 the association and dissociation phases were recorded and evaluated by global fitting using the software BIAevaluation 4.1. For global fit analysis only, these antigen concentrations were taken into account, which allowed the analysis following the Langmuir 1:1 binding model or 1:1 binding with drifting baseline.

[4] = target: T2, rat GDF-15 (rat, UniProt Q9Z0J6 189-303, limits assumed); experiment: as above
T2 construct: the construct used in SPR is not described
T2 sequence (looked up): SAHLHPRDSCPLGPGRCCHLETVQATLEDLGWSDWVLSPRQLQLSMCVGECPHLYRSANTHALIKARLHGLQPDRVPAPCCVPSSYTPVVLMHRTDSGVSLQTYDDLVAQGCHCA
Method: as §1, §2

[5] = target: T3, mouse GDF-15 (mouse, UniProt Q9Z0J7 189-303); experiment: as above
T3 construct: the construct used in SPR is not described; also called mGDF-15; murine GDF-15
T3 sequence (looked up): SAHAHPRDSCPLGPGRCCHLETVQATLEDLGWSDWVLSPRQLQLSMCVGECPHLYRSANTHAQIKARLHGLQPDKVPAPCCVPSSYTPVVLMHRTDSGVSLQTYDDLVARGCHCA
Method: as §1, §2

EC50 of CTL-002 in the flow-adhesion assay with T cells [1]: 0.707 µg/mL | EC50 of rescue of CD8+ T-cell adhesion, flow-adhesion assay [1]: ~0.7 µg/mL | Kd [2]: 0.108 nM | Kd [3]: 0.0383 nM | Kd [4]: 0.449 nM | Kd [5]: 9.76 nM
B1: CTL-002 (antibody, human IgG4 S228P, kappa, V domains shown)
VH: QITLKESGPTLVKPTQTLTLTCTFSGFSLSTSGMGVSWIRQPPGKGLEWLAHIYWDDDKRYNPTLKSRLTITKDPSKNQVVLTMTNMDPVDTATYYCARSSYGAMDYWGQGTLVTVSS
VL: DIVLTQSPSFLSASVGDRVTITCKASQNVGTNVAWFQQKPGKSPKALIYSASYRYSGVPDRFTGSGSGTEFTLTISSLQPEDFAAYFCQQYNNFPYTFGGGTKLEIKR
notes: Humanized, hinge-stabilized IgG4 (IgG4 S228P) derived from mouse antibody B1-23; captured by anti-human IgG Fc on the chip in the SPR assay; also called visugromab; CTL-001 IgG4*
